Source: patent US20200216522A1
“And” between values parts separate entries of the source, which are not always exact repeats. Identical values can stand only once.

Experiments:
[1] = molecular target: soluble Tau in Alzheimer's disease human brain lysate (human) (UniProt P10636); experiment: ELISA on coated brain lysate, antibody 0.5 nM
[2] = molecular target: soluble Tau in control human brain lysate (human) (UniProt P10636); experiment: ELISA on coated brain lysate, antibody 0.5 nM
[3] = molecular target: soluble Tau in Alzheimer's disease human brain lysate (human) (UniProt P10636); experiment: ELISA on coated brain lysate, antibody 5 nM
[4] = molecular target: soluble Tau in control human brain lysate (human) (UniProt P10636); experiment: ELISA on coated brain lysate, antibody 5 nM

Chain of soluble Tau in Alzheimer's disease human brain lysate (human) (P10636 other isoform, or with tags, fused parts or gaps limits assumed): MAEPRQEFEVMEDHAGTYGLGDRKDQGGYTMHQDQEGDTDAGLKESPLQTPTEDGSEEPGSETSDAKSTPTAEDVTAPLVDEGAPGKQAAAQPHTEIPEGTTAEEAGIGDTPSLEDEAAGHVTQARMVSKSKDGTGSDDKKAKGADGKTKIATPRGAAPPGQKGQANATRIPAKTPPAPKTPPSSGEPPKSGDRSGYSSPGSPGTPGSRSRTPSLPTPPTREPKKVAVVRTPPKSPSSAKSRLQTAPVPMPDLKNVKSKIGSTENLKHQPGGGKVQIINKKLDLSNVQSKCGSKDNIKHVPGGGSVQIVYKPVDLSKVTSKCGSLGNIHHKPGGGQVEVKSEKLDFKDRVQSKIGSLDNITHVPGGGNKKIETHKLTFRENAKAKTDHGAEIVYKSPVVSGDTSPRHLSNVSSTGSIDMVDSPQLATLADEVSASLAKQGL
Chain of soluble Tau in control human brain lysate (human) (P10636 other isoform, or with tags, fused parts or gaps limits assumed): as above

## anti-RSV antibody (negative control)
[1]
  ELISA signal: 0.108 and 0.117 and 0.115
[2]
  ELISA signal: 0.147 and 0.106 and 0.108
[3]
  ELISA signal: 0.108 and 0.107 and 0.117
[4]
  ELISA signal: 0.151 and 0.107 and 0.11
